Data published in US20260272830A1, “Ocular Hydrogel Compositions” (The University of Birmingham, priority 2018, published 2026).

Tests used:
[1] = hrDecorin release from the fluid gel (ELISA); format: physicochemical; details: cumulative release over 4 hours (240 mins), DMEM, 37° C.
Method: Levels of hrDecorin release from the gel were determined cumulatively, by placing 1 ml of the fluid gel containing hrDecorin in a 6 well plate. Then 2 ml of DMEM was placed over the sample and the plates were incubated at 37° C. At each time point, the media was removed for measurement of hrDecorin, and replaced with fresh media. Decorin release was quantified using an ELISA specific for human Decorin (R&D systems, Minneapolis, USA) in accordance with the manufacturer's protocol.

[2] = molecular target: T1, collagen type I (rat tail) (Rattus norvegicus, UniProt P02454+P02466); assay: Collagen fibrillogenesis turbidity assay; format: biochemical
T1 construct: collagen type I (rat tail; Corning, UK); purchased Corning, UK; host or cells: rat tail (tissue-derived)
Method: Collagen fibrillogenesis: For the dose response curves, 75 μl of PBS was added to each well of a 96 well plate kept on ice. Varying hrDecorin doses were prepared by adding 400 μg/ml of hrDecorin to the first well and subsequently serial diluting (2-fold dilution) across the plate. Following dilution, a further 150 μl of PBS buffer was added to each well. Then, 75 μl of collagen type I (rat tail; Corning, UK) (800 μg/ml) was added to each well and incubated for 2 hours at 37° C. Subsequent absorbance readings were taken using a 405 nm plate reader. Each assay consisted of duplicate blank controls, and triplicate standard dilutions followed by triplicate sample dilutions. Kinetics of fibril formation were determined using a similar setup as the dose response, without serial dilution; incubating the samples within the plate reader, and taking data points every 2 minutes.

[3] = turbidity at 405 nm, 2 hours at 37° C.

T1 sequence (P02454 152-1207 limits assumed): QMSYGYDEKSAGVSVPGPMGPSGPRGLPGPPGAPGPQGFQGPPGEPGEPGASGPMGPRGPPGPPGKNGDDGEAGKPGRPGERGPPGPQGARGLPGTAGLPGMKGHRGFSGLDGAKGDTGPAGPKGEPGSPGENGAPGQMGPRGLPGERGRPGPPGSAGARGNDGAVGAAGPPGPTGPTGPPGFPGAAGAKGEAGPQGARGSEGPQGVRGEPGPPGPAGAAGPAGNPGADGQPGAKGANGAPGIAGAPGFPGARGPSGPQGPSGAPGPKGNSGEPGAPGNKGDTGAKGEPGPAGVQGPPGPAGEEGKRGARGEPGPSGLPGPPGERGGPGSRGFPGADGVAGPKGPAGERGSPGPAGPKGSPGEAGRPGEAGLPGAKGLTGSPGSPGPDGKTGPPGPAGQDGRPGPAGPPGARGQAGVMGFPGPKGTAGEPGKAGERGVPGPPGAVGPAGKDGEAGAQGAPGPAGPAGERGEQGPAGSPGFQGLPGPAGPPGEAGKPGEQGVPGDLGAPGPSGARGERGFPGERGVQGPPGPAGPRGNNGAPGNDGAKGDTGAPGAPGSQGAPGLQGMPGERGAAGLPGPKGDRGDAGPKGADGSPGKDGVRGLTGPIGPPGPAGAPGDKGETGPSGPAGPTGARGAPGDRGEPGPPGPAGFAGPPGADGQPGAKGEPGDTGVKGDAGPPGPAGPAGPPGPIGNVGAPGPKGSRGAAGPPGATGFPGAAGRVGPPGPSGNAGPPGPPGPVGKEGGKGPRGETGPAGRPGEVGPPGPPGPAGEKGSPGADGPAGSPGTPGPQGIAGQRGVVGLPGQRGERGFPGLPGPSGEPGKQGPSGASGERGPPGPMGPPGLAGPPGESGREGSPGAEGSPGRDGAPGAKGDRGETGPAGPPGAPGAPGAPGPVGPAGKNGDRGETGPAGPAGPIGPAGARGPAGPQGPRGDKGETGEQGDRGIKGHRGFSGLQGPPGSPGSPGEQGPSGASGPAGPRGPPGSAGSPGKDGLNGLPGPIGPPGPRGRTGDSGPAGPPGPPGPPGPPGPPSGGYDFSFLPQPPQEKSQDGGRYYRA
T1 sequence (P02466 86-1125 limits assumed): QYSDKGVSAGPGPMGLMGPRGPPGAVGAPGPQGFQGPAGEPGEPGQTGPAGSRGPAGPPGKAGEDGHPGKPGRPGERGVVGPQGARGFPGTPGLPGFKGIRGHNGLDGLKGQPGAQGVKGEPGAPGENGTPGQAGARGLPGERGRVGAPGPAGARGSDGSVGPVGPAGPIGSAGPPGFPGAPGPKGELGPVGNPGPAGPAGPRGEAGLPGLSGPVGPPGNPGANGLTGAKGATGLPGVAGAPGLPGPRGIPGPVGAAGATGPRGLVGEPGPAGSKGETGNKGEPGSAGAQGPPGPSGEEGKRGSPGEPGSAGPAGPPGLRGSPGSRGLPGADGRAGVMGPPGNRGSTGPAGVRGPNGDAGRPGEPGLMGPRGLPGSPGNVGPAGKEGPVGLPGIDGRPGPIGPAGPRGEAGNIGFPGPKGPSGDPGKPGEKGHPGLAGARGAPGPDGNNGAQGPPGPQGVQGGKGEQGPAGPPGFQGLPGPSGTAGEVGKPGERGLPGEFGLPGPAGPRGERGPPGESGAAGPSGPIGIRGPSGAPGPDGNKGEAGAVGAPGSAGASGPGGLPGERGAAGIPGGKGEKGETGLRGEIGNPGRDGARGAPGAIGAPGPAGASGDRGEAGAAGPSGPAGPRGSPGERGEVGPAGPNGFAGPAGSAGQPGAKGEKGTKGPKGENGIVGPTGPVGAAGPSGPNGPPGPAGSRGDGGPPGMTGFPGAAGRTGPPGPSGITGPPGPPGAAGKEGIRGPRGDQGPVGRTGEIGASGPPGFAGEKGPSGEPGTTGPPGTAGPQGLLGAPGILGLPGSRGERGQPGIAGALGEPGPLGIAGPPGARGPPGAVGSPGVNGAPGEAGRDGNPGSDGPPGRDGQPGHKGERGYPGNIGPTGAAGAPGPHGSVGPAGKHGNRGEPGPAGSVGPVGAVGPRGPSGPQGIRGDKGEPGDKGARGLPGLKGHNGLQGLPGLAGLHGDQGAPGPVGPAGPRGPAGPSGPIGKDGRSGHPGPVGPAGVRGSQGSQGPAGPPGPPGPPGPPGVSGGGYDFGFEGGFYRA

B1: hrDecorin: human recombinant decorin (Galacorin™; Catalent), anti-fibrotic small leucine-rich proteoglycan (protein, UniProt P07585 31-359, looked up)
Decorin: DEASGIGPEVPDDRDFEPSLGPVCPFRCQCHLRVVQCSDLGLDKVPKDLPPDTTLLDLQNNKITEIKDGDFKNLKNLHALILVNNKISKVSPGAFTPLVKLERLYLSKNQLKELPEKMPKTLQELRAHENEITKVRKVTFNGLNQMIVIELGTNPLKSSGIENGAFQGMKKLSYIRIADTNITSIPQGLPPSLTELHLDGNKISRVDAASLKGLNNLAKLGLSFNSISAVDNGSLANTPHLRELHLDNNKLTRVPGGLAEHKYIQVVYLHNNNISVVGSSDFCPPGHNTKKASYSGVSLFSNPVQYWEIQPSTFRCVYVRSAIQLGNYK
rate of release of hrDecorin from the eye drop system [1]: almost linear over time | concentration at which minimum turbidity is achieved, above which no further reduction occurs [2, 3]: > 10 µg/mL | critical concentration above which hrDecorin inhibits fibrillogenesis [2, 3]: 0.5 μg/ml | kinetics of fibril formation ([2]; turbidity read every 2 minutes): slowing the onset of fibrillogenesis
